Results as given in publication PMC9436816.
Each block holds one substance with its values, some of them ahead of it.

What was measured:
[1] = target: Flag-tagged PKM2^WT (pyruvate kinase M2) (human) (UniProt P14618); test: cross-linking; whole cell lysates (4 mg/ml) cross-linked with 0.025% glutaraldehyde for 3 min at 37 °C, stopped with Tris-HCl pH 8.0, WB; cells with or without EGF (100 ng/ml, 1 h), with or without transfected OGT variants
[2] = glutaraldehyde crosslinking, WB; tetramer fraction after EGF; details: glycan lost; control: Flag-PKM2 WT, EGF-treated
[3] = colorimetric PK activity of immunoprecipitated PKM2 after EGF; details: glycan lost; control: Flag-PKM2 WT, EGF-treated
[4] = target: pyruvate kinase M2 (PKM2), endogenous (human (endogenous in A549)) (UniProt P14618); test: cross-linking; whole cell lysates (4 mg/ml) cross-linked with 0.025% glutaraldehyde for 3 min at 37 °C, stopped with Tris-HCl pH 8.0, WB; cells with or without EGF (100 ng/ml, 1 h), with or without transfected OGT variants

stoichiometry N [1]: 2
Substance: Flag-tagged PKM2^WT (pyruvate kinase M2), P14618 1-531 (enzyme; other documents disagree on this pair)

Substance: Pyruvate kinase M2 (PKM2): T405A/S406A
oligomerisation [2]: increases | enzymatic_activity [3]: increases

stoichiometry N [4]: 2
Substance: pyruvate kinase M2 (PKM2), endogenous, P14618 1-531 (enzyme; other documents disagree on this pair)
